Measurements: patent US20170157251A1 (MacroGenics, published 2017)

Tests used:
[1] = target: T1, soluble human CD19-biotin (human, UniProt P15391 20-291, limits assumed, biotin (site not stated)); experiment: bifunctional (bispecific) ELISA: plate coated with soluble human CD3ε/δ, DART titrated, detected with soluble human CD19-biotin; the value reflects simultaneous engagement of both antigens
T1 construct: Detection antigen of the bifunctional ELISA
T1 sequence (looked up): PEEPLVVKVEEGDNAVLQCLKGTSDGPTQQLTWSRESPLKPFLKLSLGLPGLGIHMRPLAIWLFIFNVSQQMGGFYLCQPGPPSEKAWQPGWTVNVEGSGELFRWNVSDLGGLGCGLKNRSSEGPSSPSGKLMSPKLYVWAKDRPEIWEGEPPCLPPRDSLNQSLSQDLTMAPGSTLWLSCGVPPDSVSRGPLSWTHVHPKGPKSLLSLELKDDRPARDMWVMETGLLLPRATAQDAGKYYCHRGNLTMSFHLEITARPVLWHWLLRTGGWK

human CD19 on cells [2] = target: T2, human CD19 on cells (human, UniProt P15391 20-556); experiment: cell-based or functional assay
T2 sequence (looked up): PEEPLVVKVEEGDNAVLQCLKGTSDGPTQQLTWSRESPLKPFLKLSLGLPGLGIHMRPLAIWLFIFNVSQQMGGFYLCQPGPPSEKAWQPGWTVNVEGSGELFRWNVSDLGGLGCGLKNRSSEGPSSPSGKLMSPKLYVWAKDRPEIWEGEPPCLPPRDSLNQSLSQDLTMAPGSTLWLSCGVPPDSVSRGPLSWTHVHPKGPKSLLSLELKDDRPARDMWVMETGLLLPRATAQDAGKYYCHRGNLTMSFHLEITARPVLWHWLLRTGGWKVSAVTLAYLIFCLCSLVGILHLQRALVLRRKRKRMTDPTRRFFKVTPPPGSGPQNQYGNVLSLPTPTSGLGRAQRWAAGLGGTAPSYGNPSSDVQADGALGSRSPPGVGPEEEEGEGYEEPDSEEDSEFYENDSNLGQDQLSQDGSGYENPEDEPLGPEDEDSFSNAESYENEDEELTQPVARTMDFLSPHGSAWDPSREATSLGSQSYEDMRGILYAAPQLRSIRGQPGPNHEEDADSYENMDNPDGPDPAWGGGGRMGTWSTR

human CD19 on cells [3] = target: T2, human CD19 on cells; experiment: cell-based or functional assay; remark: listed apart in the source
human CD3 on T cells = target: T3, human CD3 on T cells (human, UniProt P07766 23-207; P04234 22-171); experiment: flow cytometry on human blood leukocytes, CD4+ and CD8+ gate (T cells); detection with biotinylated anti-E-coil/K-coil mAb and streptavidin-PE
T3 construct: also called CD3 on human CD4+ and CD8+ T cells; copies: 1 + 1
T3 sequence (P07766 23-207 limits assumed, chain 1 of 2): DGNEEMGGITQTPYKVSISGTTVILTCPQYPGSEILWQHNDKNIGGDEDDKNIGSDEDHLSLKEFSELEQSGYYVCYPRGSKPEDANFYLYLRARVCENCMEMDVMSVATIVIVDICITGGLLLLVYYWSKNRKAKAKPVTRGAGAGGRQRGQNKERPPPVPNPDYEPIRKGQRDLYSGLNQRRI
T3 sequence (P04234 22-171 limits assumed, chain 2 of 2): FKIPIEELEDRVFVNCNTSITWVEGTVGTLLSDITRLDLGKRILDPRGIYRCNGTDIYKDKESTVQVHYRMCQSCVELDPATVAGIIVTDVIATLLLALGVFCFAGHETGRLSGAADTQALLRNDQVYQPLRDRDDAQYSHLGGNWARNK

Cynomolgus CD19-His = target: T4, Cynomolgus CD19-His (cynomolgus monkey, UniProt A0A2K5W8L9 20-292); experiment: SPR (BIAcore), comparison of KD against human CD19-His
T4 construct: Soluble antigen in SPR; also called soluble cynomolgus monkey CD19; not shown: His tag
T4 sequence: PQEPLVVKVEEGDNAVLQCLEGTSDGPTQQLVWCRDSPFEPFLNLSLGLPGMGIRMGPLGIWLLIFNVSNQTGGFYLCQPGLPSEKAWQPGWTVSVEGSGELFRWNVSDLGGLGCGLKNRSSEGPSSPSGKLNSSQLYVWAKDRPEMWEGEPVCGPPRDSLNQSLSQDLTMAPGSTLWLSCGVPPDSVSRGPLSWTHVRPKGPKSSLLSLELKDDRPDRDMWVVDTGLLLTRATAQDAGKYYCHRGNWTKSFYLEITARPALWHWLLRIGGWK

human CD19 on cells [4] = target: T2, human CD19 on cells; experiment: cell-based or functional assay; remark: listed apart in the source
human CD19 on cells [5] = target: T2, human CD19 on cells; experiment: cell-based or functional assay; remark: listed apart in the source
[6] = target: T5, cynomolgus monkey CD3 on T cells (cynomolgus monkey, UniProt Q95LI5 22-198; Q95LI8 22-171); experiment: flow cytometry on cynomolgus monkey blood leukocytes, CD4+ and CD8+ gate (T cells); detection with biotinylated anti-E-coil/K-coil mAb and streptavidin-PE
T5 construct: T cells were gated as CD4+ and CD8+; also called CD3 on cynomolgus monkey CD4+ and CD8+ T cells
T5 sequence (Q95LI5 22-198 limits assumed, chain 1 of 2): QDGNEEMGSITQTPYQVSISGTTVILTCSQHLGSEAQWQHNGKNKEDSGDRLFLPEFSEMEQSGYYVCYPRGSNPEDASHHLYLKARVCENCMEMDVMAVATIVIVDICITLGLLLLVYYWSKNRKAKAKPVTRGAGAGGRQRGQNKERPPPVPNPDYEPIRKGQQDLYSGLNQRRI
T5 sequence (Q95LI8 22-171 limits assumed, chain 2 of 2): as the sequence (P04234 22-171 limits assumed, chain 2 of 2) above, with I5V, N15K, I20V, S32T, D33N, I34N, T64A, S74N, V83L, H141R counted along it

human CD19 on cells [7] = target: T2, human CD19 on cells; experiment: cell-based or functional assay; remark: listed apart in the source
human CD19 on cells [8] = target: T2, human CD19 on cells; experiment: cell-based or functional assay; remark: listed apart in the source
[9] = target: cynomolgus monkey CD19 on B cells (cynomolgus monkey); experiment: cell-based or functional assay

B1: DART-A (CD19×CD3 bi-specific monovalent Fc diabody) (bispecific antibody)
chain 1: ENVLTQSPATLSVTPGEKATITCRASQSVSYMHWYQQKPGQAPRLLIYDASNRASGVPSRFSGSGSGTDHTLTISSLEAEDAATYYCFQGSVYPFTFGQGTKLEIKGGGSGGGGEVQLVESGGGLVQPGGSLRLSCAASGFTFSTYAMNWVRQAPGKGLEWVGRIRSKYNNYATYYADSVKGRFTISRDDSKNSLYLQMNSLKTEDTAVYYCVRHGNFGNSYVSWFAYWGQGTLVTVSSASTKGEVAACEKEVAALEKEVAALEKEVAALEKGGGDKTHTCPPCPAPEAAGGPSVFLFPPKPKDTLMISRTPEVTCVVVDVSHEDPEVKFNWYVDGVEVHNAKTKPREEQYNSTYRVVSVLTVLHQDWLNGKEYKCKVSNKALPAPIEKTISKAKGQPREPQVYTLPPSREEMTKNQVSLWCLVKGFYPSDIAVEWESNGQPENNYKTTPPVLDSDGSFFLYSKLTVDKSRWQQGNVFSCSVMHEALHNHYTQKSLSLSPGK
chain 2: QAVVTQEPSLTVSPGGTVTLTCRSSTGAVTTSNYANWVQQKPGQAPRGLIGGTNKRAPWTPARFSGSLLGGKAALTITGAQAEDEADYYCALWYSNLWVFGGGTKLTVLGGGGSGGGGQVTLRESGPALVKPTQTLTLTCTFSGFSLSTSGMGVGWIRQPPGKALEWLAHIWWDDDKRYNPALKSRLTISKDTSKNQVFLTMTNMDPVDTATYYCARMELWSYYFDYWGQGTTVTVSSASTKGKVAACKEKVAALKEKVAALKEKVAALKE
chain 3: not shown
notes: Three covalently bonded chains; one CD19 site and one CD3 site; Fc with L234A/L235A, knob/hole, H435R on third chain; also called CD19×CD3 bi-specific molecule; CD19×CD3 bi-specific DART-A
EC50 (read off the curve) [1]: ~80 ng/mL | EC50 of redirected killing of Raji/GF cells, E:T = 2.5:1, 48 hours (human CD19 on cells [2]): 1.08 pM | EC50 of redirected killing of Raji/GF cells, E:T = 5:1, 24 hours (human CD19 on cells [2]): 0.67 pM | EC50 of redirected killing of Raji/GF cells, E:T = 5:1, 48 hours (human CD19 on cells [2]): 0.38 pM | EC50 of redirected killing of Raji/GF cells, E:T = 10:1, 24 hours (human CD19 on cells [2]): 0.14 pM | EC50 of redirected killing of Raji/GF cells, E:T = 10:1, 48 hours (human CD19 on cells [2]): 0.0441 pM | EC50 of cytotoxicity against Raji/GF target cells with cynomolgus monkey PBMCs as effector cells (E:T = 30:1) (human CD19 on cells [3]): 0.013 pM | EC50 of redirected killing of HBL-2 cells, human T cells, E:T 10:1 (average) (human CD19 on cells [3]): 10.5 pM | EC50 of redirected killing of Jeko-1 cells, human T cells, E:T 10:1 (average) (human CD19 on cells [3]): 0.146 pM | EC50 of redirected killing of Raji/GF cells, human T cells, E:T 10:1 (average) (human CD19 on cells [3]): 0.307 pM | binding result (human CD3 on T cells): binds | fold lower affinity than for human CD19 (Cynomolgus CD19-His): ~10 fold | EC50 of redirected killing of Raji/GF cells, E:T = 1:1, 72 hours (human CD19 on cells [4]): 2.79 pM | EC50 of redirected killing of Raji/GF cells, E:T = 1:1, 96 hours (human CD19 on cells [4]): 0.44 pM | EC50 of redirected killing of Raji/GF cells, E:T = 2.5:1, 72 hours (human CD19 on cells [4]): 1.54 pM | EC50 of redirected killing of Raji/GF cells, E:T = 2.5:1, 96 hours (human CD19 on cells [4]): 0.422 pM | EC50 of autologous B cell depletion, human PBMCs, 0 nM ibrutinib, 48 hours (human CD19 on cells [5]): 0.79 ng/mL | binding result [6]: binds | EC50 of redirected killing of Raji/GF cells, 0 nM ibrutinib, CTL assay 24 hours, E:T 10:1 (human CD19 on cells [7]): 0.014 ng/mL | EC50 of redirected killing of Raji/GF cells, 0 nM ibrutinib, CTL assay 48 hours, E:T 10:1 (human CD19 on cells [7]): 0.0022 ng/mL | EC50 of autologous B cell depletion, human PBMCs, donor Human 5 (E:T = 8:1) (human CD19 on cells [8]): 6.27 pM | EC50 of autologous B cell depletion, human PBMCs, donor Human 6 (E:T = 8:1) (human CD19 on cells [8]): 2.75 pM | EC50 of autologous B cell depletion, human PBMCs, donor Human 7 (E:T = 5:1) (human CD19 on cells [8]): 5.52 pM | EC50 of autologous B cell depletion, human PBMCs, donor Human 8 (E:T = 9:1) (human CD19 on cells [8]): 1.84 pM | mean EC50 of autologous B cell depletion, human PBMCs (human CD19 on cells [8]): 4.2 pM | EC50 of autologous B cell depletion, cynomolgus monkey PBMCs, donor Cyno 5 (E:T = 3:1) [9]: 166 pM | EC50 of autologous B cell depletion, cynomolgus monkey PBMCs, donor Cyno 6 (E:T = 2:1) [9]: 859 pM | EC50 of autologous B cell depletion, cynomolgus monkey PBMCs, donor Cyno 7 (E:T = 3:1) [9]: 107 pM
